Laboratory results published in US20190309079A1 (Regeneron, published 2019).

Molecular target: T1, LEPR-P316T (signaling-impaired mutant) on HEK293 reporter cells (human, UniProt P48357 22-1165)
T1 sequence: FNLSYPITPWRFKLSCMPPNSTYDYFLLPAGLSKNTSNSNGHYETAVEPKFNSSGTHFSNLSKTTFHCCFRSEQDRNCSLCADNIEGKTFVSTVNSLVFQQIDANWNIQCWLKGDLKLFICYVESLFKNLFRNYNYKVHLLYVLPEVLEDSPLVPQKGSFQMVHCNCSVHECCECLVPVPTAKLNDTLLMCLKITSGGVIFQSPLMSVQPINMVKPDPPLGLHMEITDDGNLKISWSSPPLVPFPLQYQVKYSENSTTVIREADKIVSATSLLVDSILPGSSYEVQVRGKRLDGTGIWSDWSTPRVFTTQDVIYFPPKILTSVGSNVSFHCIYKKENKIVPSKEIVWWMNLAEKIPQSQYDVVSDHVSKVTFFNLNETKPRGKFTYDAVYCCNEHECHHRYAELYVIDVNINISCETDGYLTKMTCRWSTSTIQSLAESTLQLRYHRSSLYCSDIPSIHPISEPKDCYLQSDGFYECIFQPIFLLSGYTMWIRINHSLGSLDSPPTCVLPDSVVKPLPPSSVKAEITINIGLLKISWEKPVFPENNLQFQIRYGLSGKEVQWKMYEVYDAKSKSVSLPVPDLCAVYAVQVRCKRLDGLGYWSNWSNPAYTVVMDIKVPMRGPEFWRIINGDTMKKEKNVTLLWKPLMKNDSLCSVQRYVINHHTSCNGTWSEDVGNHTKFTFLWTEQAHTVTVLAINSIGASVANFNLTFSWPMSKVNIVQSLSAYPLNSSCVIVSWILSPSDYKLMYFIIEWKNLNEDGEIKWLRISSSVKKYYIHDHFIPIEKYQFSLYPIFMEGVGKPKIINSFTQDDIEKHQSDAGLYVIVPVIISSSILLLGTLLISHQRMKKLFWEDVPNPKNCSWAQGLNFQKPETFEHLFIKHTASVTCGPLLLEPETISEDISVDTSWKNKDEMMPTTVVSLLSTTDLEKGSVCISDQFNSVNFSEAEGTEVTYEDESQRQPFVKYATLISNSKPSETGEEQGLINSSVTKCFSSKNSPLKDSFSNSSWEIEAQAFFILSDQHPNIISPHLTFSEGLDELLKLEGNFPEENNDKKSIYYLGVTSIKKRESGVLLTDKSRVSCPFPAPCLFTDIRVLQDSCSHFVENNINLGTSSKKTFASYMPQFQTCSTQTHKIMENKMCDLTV
Experiment: cell-based or functional assay

B1: H4H16650P2 (antibody, V domains shown)
VH: QVQLVESGGGVVQPGKSLRLSCVASGFTFSSDAMYWVRQAPGKGLEWVAVIYYDGNYQYYEDSVKGRFTISRDNSQNTLDLQMNSLRVDDTAVYFCARLNWDYWYLDLWGRGTLVTVSS
VL: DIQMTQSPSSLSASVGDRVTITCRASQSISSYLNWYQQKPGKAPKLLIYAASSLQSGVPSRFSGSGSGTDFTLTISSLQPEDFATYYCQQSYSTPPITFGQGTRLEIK
Question: With B1 as the binder, how does the “EC50 (read off the curve), pSTAT3 Y705/STAT3 densitometry” value read?
Answer: ~4e-10 M
